# Patent US9802997B2, “Peptides and combination of peptides for use in immunotherapy against various tumors” (immatics biotechnologies GmbH, priority 2015, dated 2017)
# Test system: CD8+ T cells of healthy HLA-A*02 donors
# Assay: In vitro immunogenicity: in vitro T-cell priming with aAPCs loaded with peptide/MHC complexes and anti-CD28 antibody, pMHC multimer readout
# Type: cell-based, human
# Settings: HLA-A*02 restricted peptides; percentage of positive wells among evaluable
# Description: In order to obtain information regarding the immunogenicity of the TUMAPs of the present invention, the inventors performed investigations using an in vitro T-cell priming assay based on repeated stimulations of CD8+ T cells with artificial antigen presenting cells (aAPCs) loaded with peptide/MHC complexes and anti-CD28 antibody.
# In order to perform in vitro stimulations by artificial antigen presenting cells loaded with peptide-MHC complex (pMHC) and anti-CD28 antibody, the inventors first isolated CD8+ T cells from fresh HLA-A*02 leukapheresis products via positive selection using CD8 microbeads (Miltenyi Biotec, Bergisch-Gladbach, Germany) of healthy donors obtained from the University clinics Mannheim, Germany, after informed consent. PBMCs and isolated CD8+ lymphocytes were incubated in T-cell medium (TCM) until use consisting of RPMI-Glutamax (Invitrogen, Karlsruhe, Germany) supplemented with 10% heat inactivated human AB serum (PAN-Biotech, Aidenbach, Germany), 100 U/ml Penicillin/100 μg/ml Streptomycin (Cambrex, Cologne, Germany), 1 mM sodium pyruvate (CC Pro, Oberdorla, Germany), 20 μg/ml Gentamycin (Cambrex). 2.5 ng/ml IL-7 (PromoCell, Heidelberg, Germany) and 10 U/ml IL-2 (Novartis Pharma, Nürnberg, Germany) were also added to the TCM at this step. Generation of pMHC/anti-CD28 coated beads, T-cell stimulations and readout was performed in a highly defined in vitro system using four different pMHC molecules per stimulation condition and 8 different pMHC molecules per readout condition.
# The purified co-stimulatory mouse IgG2a anti human CD28 Ab 9.3 (Jung et al., 1987) was chemically biotinylated using Sulfo-N-hydroxysuccinimidobiotin as recommended by the manufacturer (Perbio, Bonn, Germany). Beads used were 5.6 μm diameter streptavidin coated polystyrene particles (Bangs Laboratories, Illinois, USA).
# pMHC used for positive and negative control stimulations were A*0201/MLA-001 (peptide […] (SEQ ID NO. 289) from modified Melan-A/MART-1) and A*0201/DDX5-001 ([…] from DDX5, SEQ ID NO. 290), respectively.
# 800.000 beads/200 μl were coated in 96-well plates in the presence of 4×12.5 ng different biotin-pMHC, washed and 600 ng biotin anti-CD28 were added subsequently in a volume of 200 μl. Stimulations were initiated in 96-well plates by co-incubating 1×10^6 CD8+ T cells with 2×10^5 washed coated beads in 200 μl TCM supplemented with 5 ng/ml IL-12 (PromoCell) for 3 days at 37° C. Half of the medium was then exchanged by fresh TCM supplemented with 80 U/ml IL-2 and incubating was continued for 4 days at 37° C. This stimulation cycle was performed for a total of three times. For the pMHC multimer readout using 8 different pMHC molecules per condition, a two-dimensional combinatorial coding approach was used as previously described (Andersen et al., 2012) with minor modifications encompassing coupling to 5 different fluorochromes. Finally, multimeric analyses were performed by staining the cells with Live/dead near IR dye (Invitrogen, Karlsruhe, Germany), CD8-FITC antibody clone SK1 (BD, Heidelberg, Germany) and fluorescent pMHC multimers. For analysis, a BD LSRII SORP cytometer equipped with appropriate lasers and filters was used. Peptide specific cells were calculated as percentage of total CD8+ cells. Evaluation of multimeric analysis was done using the FlowJo software (Tree Star, Oregon, USA). In vitro priming of specific multimer+CD8+ lymphocytes was detected by comparing to negative control stimulations.
row,Substance,Wells positive [%]
1,246 (ALAGIVTNV; listed as Homo sapiens) [compound 246],+ (<20% = +)
2,66 (AMFPDTIPRV; listed as Homo sapiens) [compound 66],+ (<20% = +)
3,157 (ILQDGQFLV; listed as Homo sapiens) [compound 157],+ (<20% = +)

# Same assay, conditions: percentage of positive donors among evaluable; HLA-A*02 healthy donors, three stimulation cycles
row,Substance,in vitro immunogenicity: donors
1,288 (SLYKGLLSV; listed as Homo sapiens) [compound 288],++++ (>=70% = ++++)

# Same assay, conditions: percentage of positive wells among evaluable; HLA-A*02 healthy donors, three stimulation cycles
row,Substance,in vitro immunogenicity: wells
1,287 (KIQEILTQV; listed as Homo sapiens) [compound 287],+ (<20% = +)

# Biological target: HLA-A*02:01 (Homo sapiens, UniProt P04439, D140Y/D185E/D98H/E176V/E277Q/G131W/G231S/I119V/I121R/I166T/I218V/L300P/L318F/N151K/N90K/P208A/P217A/Q86G/Q94H/R138H/R169H/T345S)
# Assay: MHC binding assay (UV-ligand exchange, beta2m ELISA)
# Settings: binding to HLA-A*02:01, β2m ELISA
# Outline: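 Peptide–MHC complexes formed by UV-ligand exchange, cleaving a UV-sensitive peptide so the test peptide can bind. Exchange yield measured by ELISA: complexes captured on streptavidin-coated wells, diluted 100-fold, detected with HRP anti-β2m (1 h, 37 °C) and TMB at 450 nm, against refolded HLA-A*02:01/MLA-001 standards (15-500 ng/ml).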
row,"Peptide exchange (MHC class I binding score, peptide exchange yield)",Substance
1,+++ (≧50 = +++),246 (ALAGIVTNV; listed as Homo sapiens) [compound 246]
2,++ (≧20% = ++),66 (AMFPDTIPRV; listed as Homo sapiens) [compound 66]
3,++ (≧20% = ++),157 (ILQDGQFLV; listed as Homo sapiens) [compound 157]
4,+++ (≧50 = +++),162 (GLLGNLLTSL; listed as Homo sapiens) [compound 162]
5,+++ (≧50 = +++),88 (LLLPLELSLA; listed as Homo sapiens) [compound 88]
6,+++ (≧50 = +++),175 (SLLDLVQSL; listed as Homo sapiens) [compound 175]
7,+++ (≧50 = +++),40 (KIWEELSVLEV; listed as Homo sapiens) [compound 40]
8,+++ (≧50 = +++),223 (ALHPVQFYL; listed as Homo sapiens) [compound 223]
9,+++ (≧50 = +++),153 (KLVELEHTL; listed as Homo sapiens) [compound 153]
10,+++ (≧50 = +++),109 (ILGSFELQL; listed as Homo sapiens) [compound 109]
11,++ (≧20% = ++),93 (RLYGYFHDA; listed as Homo sapiens) [compound 93]
12,+++ (≧50 = +++),181 (LLWAPTAQA; listed as Homo sapiens) [compound 181]
13,+++ (≧50 = +++),278 (VLEDKVLSV; listed as Homo sapiens) [compound 278]
14,++ (≧20% = ++),203 (FLFVDPELV; listed as Homo sapiens) [compound 203]
15,+++ (≧50 = +++),183 (ALSYILPYL; listed as Homo sapiens) [compound 183]
16,+++ (≧50 = +++),86 (SLFSNIESV; listed as Homo sapiens) [compound 86]
17,++++ (≧75% = ++++),269 (GLLDCPIFL; listed as Homo sapiens) [compound 269]
18,++ (≧20% = ++),81 (ILAEEPIYI; listed as Homo sapiens) [compound 81]
19,++ (≧20% = ++),90 (AILNVDEKNQV; listed as Homo sapiens) [compound 90]
20,++ (≧20% = ++),252 (SLMEKNQSL; listed as Homo sapiens) [compound 252]
21,+++ (≧50 = +++),277 (KLQEELNKV; listed as Homo sapiens) [compound 277]
22,++ (≧20% = ++),134 (SLYKSFLQL; listed as Homo sapiens) [compound 134]
23,++ (≧20% = ++),282 (SLYALHVKA; listed as Homo sapiens) [compound 282]
24,++ (≧20% = ++),49 (KLIGNIHGNEV; listed as Homo sapiens) [compound 49]

row,"Peptide exchange (MHC class I binding score, peptide exchange yield)",Substance
1,+++ (≧50 = +++),148 (YLILSSHQL; listed as Homo sapiens) [compound 148]
2,+++ (≧50 = +++),61 (ALYPKEITL; listed as Homo sapiens) [compound 61]
3,++ (≧20% = ++),18 (KTASINQNV; listed as Homo sapiens) [compound 18]
4,+++ (≧50 = +++),11 (LLDPKTIFL; listed as Homo sapiens) [compound 11]
5,+++ (≧50 = +++),45 (FLPVSVVYV; listed as Homo sapiens) [compound 45]
6,++ (≧20% = ++),199 (SVADLAHVL; listed as Homo sapiens) [compound 199]
7,+++ (≧50 = +++),5 (GLVDIMVHL; listed as Homo sapiens) [compound 5]
8,+++ (≧50 = +++),139 (IILENIQSL; listed as Homo sapiens) [compound 139]
9,+++ (≧50 = +++),164 (MLIIRVPSV; listed as Homo sapiens) [compound 164]
10,+++ (≧50 = +++),285 (MLLDTVQKV; listed as Homo sapiens) [compound 285]
11,++++ (≧75% = ++++),84 (FLLEREQLL; listed as Homo sapiens) [compound 84]
12,++ (≧20% = ++),187 (SILKEDPFL; listed as Homo sapiens) [compound 187]
13,+++ (≧50 = +++),147 (GLLSALENV; listed as Homo sapiens) [compound 147]
14,+++ (≧50 = +++),262 (LLLEAVWHL; listed as Homo sapiens) [compound 262]
15,++ (≧20% = ++),137 (KLIYKDLVSV; listed as Homo sapiens) [compound 137]
16,+++ (≧50 = +++),76 (FTAEFLEKV; listed as Homo sapiens) [compound 76]
17,++++ (≧75% = ++++),206 (GLDAFRIFL; listed as Homo sapiens) [compound 206]
18,++ (≧20% = ++),128 (SILTNISEV; listed as Homo sapiens) [compound 128]
19,++ (≧20% = ++),174 (ALYSGDLHAA; listed as Homo sapiens) [compound 174]
20,+++ (≧50 = +++),231 (LLDDIFIRL; listed as Homo sapiens) [compound 231]
21,+++ (≧50 = +++),41 (IVTEIISEI; listed as Homo sapiens) [compound 41]
22,+++ (≧50 = +++),217 (LLWPSSVPA; listed as Homo sapiens) [compound 217]
23,++ (≧20% = ++),212 (MTLSEIHAV; listed as Homo sapiens) [compound 212]
